Measurements published in patent publication US20180327500A1.
Blank lines part the entries; values can stand above or below the binder they belong to.

Assays:
[1] = biological target: human MET ECD construct with H209 mutated to mouse sequence, on HEK293 cells (human) (UniProt P08581); assay: flow cytometry on transfected HEK293 cells, normalised to 5D5 binding at 3 ug/ml
[2] = biological target: human MET ECD construct with AA 129-143 exchanged to mouse sequence, on HEK293 cells (human); assay: as above
[3] = biological target: human MET Fc fusion protein (R&D Systems) (human) (UniProt P08581); assay: BLI; MET-Fc saturated with antibody at 80 ug/ml (533 nM), then HGF as competitor at 20 ug/ml

B1: 36C4 antibody analog (antibody, from another filing, IgG1, V domains shown)
VH: QVQLVESGPGLVKPSQTLSLTCAVSGGSITTNYYYWSWIRQSPGKGLEWMGVIAYDGSTDYSPSLKSRTSISRDTSKNQFSLQLSSVTPEDTAVYYCARDVRVIATGWATANALDAWGQGTLVTVSS
VL: QSVLTQPPSVSGSPGKTVTISCAGTSSDVGYGNYVSWYQQLPGTAPKLLIFAVSYRASGIPDRFSGSKSGNTAFLTISGLQSEDEADYYCASYRSSNNAAVFGGGTHLTVL
% binding compared to 5D5 [1]: 43%
% binding compared to 5D5 [2]: 58%
% HGF binding inhibition [3]: 74%

B4: 13-MET antibody analog (antibody, from another filing, IgG1, V domains shown)
VH: QVQLKESGPALVKPTQTLTLTCTFSGFSLSTSGMVVSWIRQPPGKALEWLAFISWDDDKYYSTSLKTRLTISKDTSKNQVVLTMTNMDPVDTATYYCAREPGRYGGYYFDYWGQGTLVTVSS
VL: DIQMTQSPSSLSASVGDRVTITCRASQTISHYLAWYQQKPGKAPKLLIYAASILQSGVPSRFSGSGSGTDFTLTISSLQPEDFAVYYCQQYSGFPVTFGQGTKVEIKR
% HGF binding inhibition [3]: 81%

The next lines start with the values.

% HGF binding inhibition [3]: 50%
B2: 28-MET antibody analog (antibody, from another filing, IgG1, V domains shown)
VH: QVQLQESGPGLVKPGETLSLTCTVSGGSISGYYWSWIRQAPGKGLEWIGEIYYAGSTLYNPSLKGRVTISVDTSKNQFSLKLSSVTAEDTAVYYCARHYGLDWFGDTGMDVWGQGTLVTVSS
VL: DIELTQPPSVSVAPGQSITISCSGDNLGDKYVHWYQQKPGQAPVLVIYDDNERPSGIPERFSGSNSGNTATLTISGTQAEDEADYYCSAYGSHSGTVFGGGTKLTVLG

% HGF binding inhibition [3]: 69%
B3: 223C4 antibody analog (antibody, from another filing, IgG1, V domains shown)
VH: EVLLQQSGPELVKPGASVKIPCKASGYTFTDYNMDWVKQSHGMSLEWIGDINPNNGGTIFNQKFKGKATLTVDKSSSTAYMELRSLTSEDTAVYYCARGRYVGYYYAMDYWGQGTSVTVSS
VL: DIQMTQSPASLSVSVGETVTITCRASENIYSNLAWYQQKQGKSPQLLVYAATNLVDGVPSRFSGSGSGTQYSLKINSLQSEDFGSYYCQHFWGPPYTFGGGTKLEIK
